Results taken from the supplement of paper PMC6757056.
± gives the standard deviation of the averaged measurements.

B1: library; a variant is named by its letters at N, in order (parent)
chain: GCUGUCACCGGUGCUUGGUACGUUAUAUUCAGCCGGUCUGAUGAGUCUNNNNNNAGACGAAACAGC

What was measured:
(6R,S)-folinic acid [1] = variants of: B1; assay: normalized RNA/DNA level without ligand (relative to sTRSVctl = 100) (log10 (% of sTRSVctl)); HEK293T overexpressing SLC46A1; higher = less ribozyme self-cleavage, higher mRNA level; settings: without (6R,S)-folinic acid; ligand present: no
In short: (§1)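 Ribozyme switch library plasmids with mCherry reporters (eGFP in certain ligand experiments) went into HEK293T cells at 4 µg per 6-well well. Where ligand was used, it was applied 1 h before transfection, and total RNA was extracted with EDTA 72 h later for reverse transcription, amplification, barcoding and sequencing. RNA level is the RNA-to-DNA read ratio normalized to a spiked-in non-cleaving sequence or to the leading sequences, then scaled and log-transformed. Scaling was ×100 with log10, the leading set comprised 25 sequences, and the cutoff was ≥100 DNA reads.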

(6R,S)-folinic acid [2] = variants of: B1; assay: normalized RNA/DNA level with ligand (relative to sTRSVctl = 100) (log10 (% of sTRSVctl)); HEK293T overexpressing SLC46A1; ligand concentration (+) RNA-Seq: 6 mM; higher = less ribozyme self-cleavage, higher mRNA level; settings: with (6R,S)-folinic acid; ligand present: yes
In short: as §1

Variant | normalized RNA/DNA level without ligand (log10) ((6R,S)-folinic acid [1]) | normalized RNA/DNA level with ligand (log10) ((6R,S)-folinic acid [2])
GCUGUCACCGGUGCUUGGUACGUUAUAUUCAGCCGGUCUGAUGAGUCUCCGUUCAGACGAAACAGC [CCGUUC] | 2.048 ± 0.0038 | 2.03 ± 0.071
GCUGUCACCGGUGCUUGGUACGUUAUAUUCAGCCGGUCUGAUGAGUCUCCGUUGAGACGAAACAGC [CCGUUG] | 1.99 ± 0.024 | 2.04 ± 0.044
GCUGUCACCGGUGCUUGGUACGUUAUAUUCAGCCGGUCUGAUGAGUCUCCGUUAAGACGAAACAGC [CCGUUA] | 2.005 ± 0.0026 | 1.97 ± 0.055
GCUGUCACCGGUGCUUGGUACGUUAUAUUCAGCCGGUCUGAUGAGUCUCCGUUUAGACGAAACAGC [CCGUUU] | 2.037 ± 0.0047 | 2.013 ± 0.02
GCUGUCACCGGUGCUUGGUACGUUAUAUUCAGCCGGUCUGAUGAGUCUUCGUUAAGACGAAACAGC [UCGUUA] | 2.009 ± 0.0058 | 2.04 ± 0.038
GCUGUCACCGGUGCUUGGUACGUUAUAUUCAGCCGGUCUGAUGAGUCUUCGUUCAGACGAAACAGC [UCGUUC] | 2.0303 ± 0.002 | 2.01 ± 0.034
GCUGUCACCGGUGCUUGGUACGUUAUAUUCAGCCGGUCUGAUGAGUCUUCGUUUAGACGAAACAGC [UCGUUU] | 1.99 ± 0.03 | 2.028 ± 0.0051
GCUGUCACCGGUGCUUGGUACGUUAUAUUCAGCCGGUCUGAUGAGUCUCCUAACAGACGAAACAGC [CCUAAC] | 2.041 ± 0.0058 | 2.038 ± 0.017
GCUGUCACCGGUGCUUGGUACGUUAUAUUCAGCCGGUCUGAUGAGUCUCCUAAAAGACGAAACAGC [CCUAAA] | 1.9908 ± 0.0014 | 2.01 ± 0.028
GCUGUCACCGGUGCUUGGUACGUUAUAUUCAGCCGGUCUGAUGAGUCUACGUGUAGACGAAACAGC [ACGUGU] | 2.06 ± 0.028 | 2.06 ± 0.024
GCUGUCACCGGUGCUUGGUACGUUAUAUUCAGCCGGUCUGAUGAGUCUUCUAACAGACGAAACAGC [UCUAAC] | 2.013 ± 0.0071 | 2.031 ± 0.018
GCUGUCACCGGUGCUUGGUACGUUAUAUUCAGCCGGUCUGAUGAGUCUGCGUGUAGACGAAACAGC [GCGUGU] | 1.974 ± 0.0053 | 2.04 ± 0.053
GCUGUCACCGGUGCUUGGUACGUUAUAUUCAGCCGGUCUGAUGAGUCUUCGUGUAGACGAAACAGC [UCGUGU] | 1.998 ± 0.0023 | 2.029 ± 0.0088
GCUGUCACCGGUGCUUGGUACGUUAUAUUCAGCCGGUCUGAUGAGUCUGCGUUAAGACGAAACAGC [GCGUUA] | 2.003 ± 0.0039 | 2.02 ± 0.036
GCUGUCACCGGUGCUUGGUACGUUAUAUUCAGCCGGUCUGAUGAGUCUGCGUUUAGACGAAACAGC [GCGUUU] | 2.037 ± 0.017 | 2.04 ± 0.022
GCUGUCACCGGUGCUUGGUACGUUAUAUUCAGCCGGUCUGAUGAGUCUGCGUUCAGACGAAACAGC [GCGUUC] | 2.017 ± 0.0029 | 2.034 ± 0.02
GCUGUCACCGGUGCUUGGUACGUUAUAUUCAGCCGGUCUGAUGAGUCUGCGUUGAGACGAAACAGC [GCGUUG] | 2.009 ± 0.0022 | 2.05 ± 0.041
GCUGUCACCGGUGCUUGGUACGUUAUAUUCAGCCGGUCUGAUGAGUCUACGUUGAGACGAAACAGC [ACGUUG] | 1.936 ± 0.0063 | 2.03 ± 0.043
GCUGUCACCGGUGCUUGGUACGUUAUAUUCAGCCGGUCUGAUGAGUCUACGUUCAGACGAAACAGC [ACGUUC] | 2.07 ± 0.022 | 2.02 ± 0.037
GCUGUCACCGGUGCUUGGUACGUUAUAUUCAGCCGGUCUGAUGAGUCUGCUAACAGACGAAACAGC [GCUAAC] | 1.975 ± 0.015 | 2.015 ± 0.007
GCUGUCACCGGUGCUUGGUACGUUAUAUUCAGCCGGUCUGAUGAGUCUGCUAAAAGACGAAACAGC [GCUAAA] | 1.992 ± 0.009 | 2.02 ± 0.028
